From patent publication US20150361183A1 (IMPERIAL INNOVATIONS, published 2015)
Each block holds one binder with its values, some of them ahead of it.

What was measured:
[1] = biological target: the molecule itself; assay: MALS / size exclusion chromatography
Text: FIG. 3(a) Generation of a CFHR5 protein lacking critical amino acids within the dimerisation motif. Monomeric CFHR5 (CFHR5^{dimer mutant}) was generated by mutating the three stabilizing amino acids (Tyr34Ser, Ser36 Tyr, Tyr39Glu) within the dimerisation motif to the corresponding amino acids within CFH. FIG. 3(b) Analysis of recombinant CFHR5 and CFHR5^{dimer mutant} using SDS PAGE gel electrophoresis. Both the wild type and dimer mutants were purified to single homogenous species as visualized by denaturing electrophoresis. FIG. 3(c) Analysis of recombinant CFHR5 and CFHR5^{dimer mutant} using size exclusion chromatography. Size exclusion chromatography was performed on a Superdex200 10/30 column (GE Healthcare) equilibrated in 50 mM Tris.HCl, pH 7.5, 150 mM NaCl at 0.4 ml/min. The column was followed in-line by an Optilab-Rex refractive index monitor (Wyatt Technologies). The CFHR5 dimer elutes early from the column (blue trace) whilst the monomeric CFHR5^{dimer mutant} protein elutes at a larger column volume (red trace). FIG. 3(d) Interaction of CFHR5 and CFHR5^{dimer mutant} with renal-bound mouse C3 in vivo.
The inventors next explored the functional consequences of dimerisation. They predicted that dimerisation would enhance ligand interaction through avidity. To test this they generated monomeric and dimeric CFHR5 proteins. […]

X-ray crystal structure = biological target: the molecule itself; assay: X-ray crystal structure
Procedure: Crystals were grown using the sitting drop vapour diffusion method from 0.2 μL, protein+0.2 μL mother liquor drops at […] using protein stocks at A280=3.3 and 7.8 for CFHR112 and CFHR234 respectively. CFHR112 crystals grew from a mother liquor containing 36% PEG 2000 MME, 0.1M MES pH 6.5. CFHR234 crystals grew in 30% PEG 8000, 0.2M ammonium sulphate. Crystals were plunge cooled in liquid nitrogen following cryoprotection in 20% and 15% ethylene glycol for CFHR112 and CFHR234, respectively. Data were collected at both the ESRF and DIAMOND using the rotation method with oscillation ranges of 0.150 or 0.20 at 120 K. CFHR112 data were collected at beamline ID29 (ESRF, Grenoble) with λ=1.7105 Å. CFHR234 data were collected at beamline I04-1 (DIAMOND, UK) with λ=0.9173 Å. Data were integrated and scaled using XIA2 19 with the −3dii option to enforce usage of XDS 20 for integration and SCALA for scaling 21.

C5 = biological target: T1, C5 (UniProt P01031 19-673; P01031 678-1676, limits assumed); assay: SPR, CFHR112 immobilised (750 RU), C5 flowed
T1 construct: also called complement C5
T1 sequence (P01031 19-673 limits assumed, chain 1 of 2): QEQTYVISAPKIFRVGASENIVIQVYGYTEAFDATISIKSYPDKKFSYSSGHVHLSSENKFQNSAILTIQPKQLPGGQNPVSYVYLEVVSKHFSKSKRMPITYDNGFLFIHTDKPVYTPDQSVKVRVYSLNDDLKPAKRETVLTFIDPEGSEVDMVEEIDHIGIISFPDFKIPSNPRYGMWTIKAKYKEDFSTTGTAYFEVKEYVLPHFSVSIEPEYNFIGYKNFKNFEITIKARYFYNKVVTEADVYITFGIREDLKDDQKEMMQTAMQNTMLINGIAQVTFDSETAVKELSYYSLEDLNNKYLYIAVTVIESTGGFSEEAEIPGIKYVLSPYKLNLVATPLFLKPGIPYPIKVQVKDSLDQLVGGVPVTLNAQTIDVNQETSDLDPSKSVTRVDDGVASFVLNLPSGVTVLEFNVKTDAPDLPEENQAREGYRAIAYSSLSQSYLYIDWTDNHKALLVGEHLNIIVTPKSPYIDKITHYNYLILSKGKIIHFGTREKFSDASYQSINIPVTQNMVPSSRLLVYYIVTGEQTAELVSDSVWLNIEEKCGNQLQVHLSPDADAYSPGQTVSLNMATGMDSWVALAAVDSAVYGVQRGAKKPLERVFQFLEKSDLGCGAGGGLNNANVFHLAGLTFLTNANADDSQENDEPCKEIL
T1 sequence (P01031 678-1676 limits assumed, chain 2 of 2): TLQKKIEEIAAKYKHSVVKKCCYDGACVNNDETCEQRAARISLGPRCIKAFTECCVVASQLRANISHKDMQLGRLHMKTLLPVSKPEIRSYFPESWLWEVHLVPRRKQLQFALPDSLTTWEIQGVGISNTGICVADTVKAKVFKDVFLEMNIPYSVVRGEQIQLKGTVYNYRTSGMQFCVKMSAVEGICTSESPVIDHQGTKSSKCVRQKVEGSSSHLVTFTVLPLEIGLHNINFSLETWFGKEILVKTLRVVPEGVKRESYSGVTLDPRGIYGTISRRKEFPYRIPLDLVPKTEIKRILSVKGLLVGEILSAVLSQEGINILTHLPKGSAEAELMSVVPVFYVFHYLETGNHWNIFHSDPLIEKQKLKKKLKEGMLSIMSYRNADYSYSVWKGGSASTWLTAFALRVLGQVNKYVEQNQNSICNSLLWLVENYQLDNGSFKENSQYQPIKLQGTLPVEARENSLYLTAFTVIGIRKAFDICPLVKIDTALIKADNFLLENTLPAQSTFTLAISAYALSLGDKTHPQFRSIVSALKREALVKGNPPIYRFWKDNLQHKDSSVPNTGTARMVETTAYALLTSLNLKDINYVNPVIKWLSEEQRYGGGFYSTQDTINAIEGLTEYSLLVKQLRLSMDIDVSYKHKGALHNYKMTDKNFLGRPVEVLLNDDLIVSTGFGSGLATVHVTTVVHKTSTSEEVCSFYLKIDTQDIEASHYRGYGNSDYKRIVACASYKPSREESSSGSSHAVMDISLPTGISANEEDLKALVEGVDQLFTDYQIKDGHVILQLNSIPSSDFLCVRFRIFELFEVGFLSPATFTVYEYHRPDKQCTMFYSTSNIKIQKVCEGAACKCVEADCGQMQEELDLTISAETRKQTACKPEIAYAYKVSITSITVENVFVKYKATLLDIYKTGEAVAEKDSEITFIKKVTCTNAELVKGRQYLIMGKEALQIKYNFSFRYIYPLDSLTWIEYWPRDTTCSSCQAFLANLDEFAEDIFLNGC

B1: CFHR5 dimer mutant (Tyr34Ser, Ser36Tyr, Tyr39Glu) (other)
chain: EGTLCDFPKIHHGFLYDEEDYNPFSQVPTGEVFSYYCEENFVSPSKSFWTRITCTEEGWSPTPKCLRMCSFPFVKNGHSESSGLIHLEGDTVQIICNTGYSLQNNEKNISCVERGWSTPPICSFTKGECHVPILEANVDAQPKKESYKVGDVLKFSCRKNLIRVGSDSVQCYQFGWSPNFPTCKGQVRSCGPPPQLSNGEVKEIRKEEYGHNEVVEYDCNPNFIINGPKKIQCVDGEWTTLPTCVEQVKTCGYIPELEYGYVQPSVPPYQHGVSVEVNCRNEYAMIGNNMITCINGIWTELPMCVATHQLKRCKIAGVNIKTLLKLSGKEFNHNSRIRYRCSDIFRYRHSVCINGKWNPEVDCTEKREQFCPPPPQIPNAQNMTTTVNYQDGEKVAVLCKENYLLPEAKEIVCKDGRWQSLPRCVESTAYCGPPPSINNGDTTSFPLSVYPPGSTVTYRCQSFYKLQGSVTVTCRNKQWSEPPRCLDPCVVSEENMNKNNIQLKWRNDGKLYAKTGDAVEFQCKFPHKAMISSPPFRAICQEGKFEYPICE
notes: also called monomeric CFHR5
binding result [1]: no binding

binding result (C5): no binding
B2: CFHR112 (recombinant first two SCR domains of CFHR1) (other)
chain: EATFCDFPKINHGILYDEEKYKPFSQVPTGEVFYYSCEYNFVSPSKSFWTRITCTEEGWSPTPKCLRLCFFPFVENGHSESSGQTHLEGDTVQIICNTGYRLQNNENNISCVERGWSTPPKCRST
notes: Head-to-tail homodimer in crystal and in solution; also called CFHR1,2; recombinant CFHR1 domains 1 and 2
binding result (X-ray crystal structure): binds
